In the supplement of paper PMC9233669:
Variants at the floor of the assay were thinned out.

What was measured:
biotinyl-Ile-oxazolone = test: self-aminoacylation, catalytic enhancement (BIO) (fold over background); higher = more active; k-Seq, kA / k0A0; sequences stand for … in GGGAAUGGAUCCACAUCUACGAAUUC…UUCACUGCAGACUUGACGAAGCUG
In short: (§1)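 Mutagenized RNA pools with a 21-nt variable region (0.43 μM) were reacted with each biotinyl-aminoacyl-oxazolone at 2–1250 μM for 90 minutes at room temperature, in 50 μL HEPES/NaCl/KCl/MgCl2/CaCl2 buffer containing 5% acetonitrile at pH 6.9–7.0. RNA captured on streptavidin was quantified by triplicate qPCR and by Illumina sequencing. The fraction reacted for each sequence was fit to a pseudo-first-order model with bootstrapping, and catalytic enhancement is the median kA divided by the uncatalyzed rate, taken as the low-activity peak of a bimodal Gaussian fit.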

biotinyl-Phe-oxazolone = test: self-aminoacylation, catalytic enhancement (BFO) (fold over background); higher = more active; k-Seq, kA / k0A0; sequences stand for … in GGGAAUGGAUCCACAUCUACGAAUUC…UUCACUGCAGACUUGACGAAGCUG
In short: as §1

biotinyl-Trp-oxazolone = test: self-aminoacylation, catalytic enhancement (BWO) (fold over background); higher = more active; k-Seq, kA / k0A0; sequences stand for … in GGGAAUGGAUCCACAUCUACGAAUUC…UUCACUGCAGACUUGACGAAGCUG
In short: as §1

biotinyl-Leu-oxazolone = test: self-aminoacylation, catalytic enhancement (BLO) (fold over background); higher = more active; k-Seq, kA / k0A0; sequences stand for … in GGGAAUGGAUCCACAUCUACGAAUUC…UUCACUGCAGACUUGACGAAGCUG
In short: as §1

biotinyl-Val-oxazolone = test: self-aminoacylation, catalytic enhancement (BVO) (fold over background); higher = more active; k-Seq, kA / k0A0; sequences stand for … in GGGAAUGGAUCCACAUCUACGAAUUC…UUCACUGCAGACUUGACGAAGCUG
In short: as §1

biotinyl-Met-oxazolone = test: self-aminoacylation, catalytic enhancement (BMO) (fold over background); higher = more active; k-Seq, kA / k0A0; sequences stand for … in GGGAAUGGAUCCACAUCUACGAAUUC…UUCACUGCAGACUUGACGAAGCUG
In short: as §1

| Sequence | self-aminoacylation (biotinyl-Ile-oxazolone) | self-aminoacylation (biotinyl-Phe-oxazolone) | self-aminoacylation (biotinyl-Trp-oxazolone) | self-aminoacylation (biotinyl-Leu-oxazolone) | self-aminoacylation (biotinyl-Val-oxazolone) | self-aminoacylation (biotinyl-Met-oxazolone) |
| --- | --- | --- | --- | --- | --- | --- |
| AUACACCUAGGUCAUCGGUUG [Fam2.2 aminoacylation ribozyme variant] | 1.1 | 3.92 | 1.54 | 1.31 | 1.24 | 1.44 |
| AUACACCUAGGUGAUCGGGUG [Fam2.2 aminoacylation ribozyme variant] | 3.87 | 16.4 | 4.59 | 3.88 | 2.6 | 3.56 |
| AUACACGUAGGUCAUCGGGUG [Fam2.2 aminoacylation ribozyme variant] | 2.19 | 17.3 | 3.2 | 3.2 | 2.67 | 3.63 |
| AUACAGCUAGGUCAUCGGGUG [Fam2.2 aminoacylation ribozyme variant] | 3.25 | 25.1 | 3.64 | 4.04 | 3.09 | 2.96 |
| AUACCCCUAGGUCAUCGGGUG [Fam2.2 aminoacylation ribozyme variant] | 5.22 | 71.2 | 7.88 | 10.7 | 5.95 | 8.28 |
| AUACCCCUGGUCAUCGAGUGA [Fam2.1 aminoacylation ribozyme variant] | 3.42 | 7.63 | 7.04 | 5.62 | 2.88 | 6.17 |
| AUACUUCAAACAAUCGGUCAG [Fam1A.1 aminoacylation ribozyme variant] | 0.82 | 3.2 | 1.88 | 0.728 | 0.891 | 0.672 |
| AUAUCCCUGGUCAUCGAGUGA [Fam2.1 aminoacylation ribozyme variant] | 5.36 | 10.5 | 11.8 | 9.81 | 5.25 | 10.3 |
| AUCACACUGGUCAUCGAGUGA [Fam2.1 aminoacylation ribozyme variant] | 4.41 | 42.5 | 8.95 | 6.47 | 4.06 | 6.51 |
| AUCACCCUGCUCAUCGAGUGA [Fam2.1 aminoacylation ribozyme variant] | 1.57 | 19.1 | 3.44 | 2.67 | 1.9 | 2.48 |
| AUCACCCUGGCCAUCGAGUGA [Fam2.1 aminoacylation ribozyme variant] | 3.91 | 32 | 7.58 | 6.04 | 3.96 | 6.12 |
| AUCACCCUGGUCAGCGAGUGA [Fam2.1 aminoacylation ribozyme variant] | 4.13 | 38.2 | 10.5 | 8.3 | 4.3 | 8.22 |
| AUCACCCUGGUCAUCGAGUGG [Fam2.1 aminoacylation ribozyme variant] | 4.14 | 41.8 | 10.2 | 12.7 | 5.02 | 10.3 |
| AUCACCCUGGUCAUCGCGUGA [Fam2.1 aminoacylation ribozyme variant] | 12.1 | 215 | 33.8 | 36.4 | 17.1 | 33.9 |
| AUCACCCUGUUCAUCGAGUGA [Fam2.1 aminoacylation ribozyme variant] | 2.85 | 30 | 5.52 | 5.15 | 2.78 | 4.68 |
| AUCCACCUAAGUCAUCGGGUG [Fam2.2 aminoacylation ribozyme variant] | 6.14 | 90.6 | 9.42 | 14.4 | 7.25 | 11.3 |
| AUCCACCUAGGACAUCGGGUG [Fam2.2 aminoacylation ribozyme variant] | 3.12 | 39.9 | 5.03 | 4.49 | 3.38 | 3.23 |
| AUCCACCUAGGUCAUCAGGUG [Fam2.2 aminoacylation ribozyme variant] | 1.51 | 4.11 | 2.64 | 1.82 | 1.74 | 1.74 |
| AUCCACCUAGGUCAUCCGGUG [Fam2.2 aminoacylation ribozyme variant] | 5.53 | 46.1 | 7.83 | 7.31 | 6.56 | 7.38 |
| AUCCACCUAGGUCAUCGGGGG [Fam2.2 aminoacylation ribozyme variant] | 4.14 | 2.86 | 4.13 | 5.3 | 2.77 | 3.97 |
| AUCCACCUGGGUCAUCGGGUG [Fam2.2 aminoacylation ribozyme variant] | 4.48 | 41.8 | 7.25 | 8.16 | 6.05 | 9.47 |
| AUCCUCCUAGGUCAUCGGGUG [Fam2.2 aminoacylation ribozyme variant] | 6.79 | 68.5 | 9.65 | 12.9 | 7.4 | 11.8 |
| AUCCUUCAAACAAUCGGUCUG [Fam1A.1 aminoacylation ribozyme variant] | 0.755 | 4.27 | 3.9 | 0.809 | 0.688 | 0.822 |
| AUGAACCUAGGUCAUCGGGUG [Fam2.2 aminoacylation ribozyme variant] | 4.29 | 24.6 | 6.44 | 7.54 | 4.28 | 5.97 |
| AUGACCCGGGUCAUCGAGUGA [Fam2.1 aminoacylation ribozyme variant] | 3.9 | 46.3 | 6.53 | 7.47 | 3.55 | 6.73 |
| AUGACCCUAGUCAUCGAGUGA [Fam2.1 aminoacylation ribozyme variant] | 3.13 | 26.6 | 7.34 | 5.61 | 3.27 | 6.07 |

| Sequence | self-aminoacylation (biotinyl-Ile-oxazolone) | self-aminoacylation (biotinyl-Phe-oxazolone) | self-aminoacylation (biotinyl-Trp-oxazolone) | self-aminoacylation (biotinyl-Leu-oxazolone) | self-aminoacylation (biotinyl-Val-oxazolone) | self-aminoacylation (biotinyl-Met-oxazolone) |
| --- | --- | --- | --- | --- | --- | --- |
| AUGACCCUCGUCAUCGAGUGA [Fam2.1 aminoacylation ribozyme variant] | 2.05 | 14.7 | 3.73 | 3.43 | 2.06 | 3.35 |
| AUGACCCUGGUAAUCGAGUGA [Fam2.1 aminoacylation ribozyme variant] | 2.7 | 23.9 | 6.37 | 5.39 | 2.8 | 5.08 |
| AUGACCCUGGUCAUCGAAUGA [Fam2.1 aminoacylation ribozyme variant] | 1.59 | 6.66 | 1.44 | 2.06 | 1.35 | 1.46 |
| AUGACCCUGGUCAUUGAGUGA [Fam2.1 aminoacylation ribozyme variant] | 3.61 | 49.8 | 7.49 | 7.74 | 3 | 7.27 |
| AUGACCCUGGUCGUCGAGUGA [Fam2.1 aminoacylation ribozyme variant] | 1.01 | 4.65 | 0.916 | 1.38 | 0.888 | 1.25 |
| AUGACCCUGGUGAUCGAGUGA [Fam2.1 aminoacylation ribozyme variant] | 2.8 | 27.3 | 5 | 5.51 | 2.44 | 4.4 |
| AUGACCCUUGUCAUCGAGUGA [Fam2.1 aminoacylation ribozyme variant] | 3.06 | 31.3 | 7 | 6.36 | 3.19 | 6.11 |
| AUGACCUUGGUCAUCGAGUGA [Fam2.1 aminoacylation ribozyme variant] | 3.22 | 22.3 | 6.29 | 5.27 | 3.1 | 5.23 |
| AUGAGCCUGGUCAUCGAGUGA [Fam2.1 aminoacylation ribozyme variant] | 3.82 | 31.3 | 6.33 | 5.69 | 3.71 | 5.66 |
| AUGCACCUAGGUAAUCGGGUG [Fam2.2 aminoacylation ribozyme variant] | 2.07 | 10.9 | 3.25 | 2.31 | 1.94 | 2.56 |
| AUGCACCUAGGUCAACGGGUG [Fam2.2 aminoacylation ribozyme variant] | 2.45 | 14.2 | 2.21 | 2.68 | 1.95 | 2.51 |
| AUGCACCUAGGUCACCGGGUG [Fam2.2 aminoacylation ribozyme variant] | 3.86 | 25 | 4.46 | 3.59 | 3.68 | 3.97 |
| AUGCACCUAGGUCAUCGGCUG [Fam2.2 aminoacylation ribozyme variant] | 1.99 | 11 | 2.5 | 1.83 | 2.2 | 2.3 |
| AUGCACCUAGGUCAUCGGGUU [Fam2.2 aminoacylation ribozyme variant] | 3.66 | 5.22 | 4.05 | 4.54 | 3.24 | 4.43 |
| AUGCACCUAGGUGAUCGGGUG [Fam2.2 aminoacylation ribozyme variant] | 4.96 | 30.7 | 6.5 | 5.11 | 3.71 | 4.8 |
| AUGCACCUAGUUCAUCGGGUG [Fam2.2 aminoacylation ribozyme variant] | 2.77 | 13.6 | 4.29 | 3.07 | 2.37 | 2.73 |
| AUGCACGUAGGUCAUCGGGUG [Fam2.2 aminoacylation ribozyme variant] | 3.52 | 45.4 | 5.33 | 4.72 | 3.89 | 4.47 |
| AUGUAUGCUAAUAGUCGCAAG [Fam3.1 aminoacylation ribozyme variant] | 1.62 | 3.25 | 1.95 | 1.14 | 1.39 | 1.67 |
| AUGUGUGCUAAUAGUCGCAAG [Fam3.1 aminoacylation ribozyme variant] | 1.57 | 3.53 | 1.95 | 1.36 | 1.37 | 1.2 |
| AUGUUUGCUAAUAGCCGCAAG [Fam3.1 aminoacylation ribozyme variant] | 1.28 | 2.62 | 1.36 | 1.14 | 1.04 | 0.997 |
| AUGUUUGCUAAUAGUCACAAG [Fam3.1 aminoacylation ribozyme variant] | 1.24 | 5.37 | 2.35 | 1.07 | 1.01 | 1.17 |
| AUGUUUGCUAAUAGUCGAAAG [Fam3.1 aminoacylation ribozyme variant] | 1.28 | 8.7 | 2.94 | 1.07 | 1.11 | 1.08 |
| AUGUUUGCUAAUAGUCGCACG [Fam3.1 aminoacylation ribozyme variant] | 1.15 | 1.24 | 0.741 | 1.13 | 0.981 | 1.02 |
| AUGUUUGCUAAUAGUCGCAGG [Fam3.1 aminoacylation ribozyme variant] | 1.54 | 2.47 | 1.95 | 1.8 | 1.33 | 1.76 |
| AUGUUUGCUAAUAGUCGCAUG [Fam3.1 aminoacylation ribozyme variant] | 1.34 | 1.52 | 1.38 | 1.72 | 1.39 | 1.58 |
